Laboratory results published in PMC9135340.
Like-named read-outs stand apart in the source and are kept apart here.

Assays:
PTCH2 (Homo sapiens) [1] = molecular target: PTCH2 (Homo sapiens) (UniProt Q9Y6C5); conditions: cited from earlier work
PTCH1 (Homo sapiens) [2] = molecular target: PTCH1 (Homo sapiens) (UniProt Q13635); conditions: cited from earlier work
PTCH2 (Homo sapiens) [3] = molecular target: PTCH2 (Homo sapiens) (UniProt Q9Y6C5); conditions: cited from earlier work; remark: listed apart in the source
PTCH1 (Homo sapiens) [4] = molecular target: PTCH1 (Homo sapiens) (UniProt Q13635); conditions: cited from earlier work; remark: listed apart in the source
PTCH1 (Homo sapiens) [5] = molecular target: PTCH1 (Homo sapiens) (UniProt Q13635); conditions: cited from earlier work; remark: listed apart in the source
PTCH2 (Homo sapiens) [6] = molecular target: PTCH2 (Homo sapiens) (UniProt Q9Y6C5); conditions: cited from earlier work; remark: listed apart in the source
[7] = molecular target: recombinant PTCH2 (amino acids 79 to 379; putative loop 1 ligand binding region) (UniProt Q9Y6C5); assay: SPR; Biacore T100; rPTCH2-His immobilised on a nickel chip; rTRP120-TR or rTrx injected at 2-fold dilutions (800nM to 25nM); three independent experiments
recombinant PTCH2 (amino acids 79 to 379; putative loop 1 ligand binding region), sequence (Q9Y6C5 79-379): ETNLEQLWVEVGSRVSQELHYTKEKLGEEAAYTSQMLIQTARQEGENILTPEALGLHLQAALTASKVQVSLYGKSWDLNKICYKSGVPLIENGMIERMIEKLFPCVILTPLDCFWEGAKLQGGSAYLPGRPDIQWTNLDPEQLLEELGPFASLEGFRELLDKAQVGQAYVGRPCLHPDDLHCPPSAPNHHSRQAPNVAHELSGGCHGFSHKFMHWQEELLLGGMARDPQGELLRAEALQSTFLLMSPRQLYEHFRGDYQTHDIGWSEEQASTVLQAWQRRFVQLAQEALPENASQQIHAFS

PTCH1 (Homo sapiens), sequence (Q13635 whole entry): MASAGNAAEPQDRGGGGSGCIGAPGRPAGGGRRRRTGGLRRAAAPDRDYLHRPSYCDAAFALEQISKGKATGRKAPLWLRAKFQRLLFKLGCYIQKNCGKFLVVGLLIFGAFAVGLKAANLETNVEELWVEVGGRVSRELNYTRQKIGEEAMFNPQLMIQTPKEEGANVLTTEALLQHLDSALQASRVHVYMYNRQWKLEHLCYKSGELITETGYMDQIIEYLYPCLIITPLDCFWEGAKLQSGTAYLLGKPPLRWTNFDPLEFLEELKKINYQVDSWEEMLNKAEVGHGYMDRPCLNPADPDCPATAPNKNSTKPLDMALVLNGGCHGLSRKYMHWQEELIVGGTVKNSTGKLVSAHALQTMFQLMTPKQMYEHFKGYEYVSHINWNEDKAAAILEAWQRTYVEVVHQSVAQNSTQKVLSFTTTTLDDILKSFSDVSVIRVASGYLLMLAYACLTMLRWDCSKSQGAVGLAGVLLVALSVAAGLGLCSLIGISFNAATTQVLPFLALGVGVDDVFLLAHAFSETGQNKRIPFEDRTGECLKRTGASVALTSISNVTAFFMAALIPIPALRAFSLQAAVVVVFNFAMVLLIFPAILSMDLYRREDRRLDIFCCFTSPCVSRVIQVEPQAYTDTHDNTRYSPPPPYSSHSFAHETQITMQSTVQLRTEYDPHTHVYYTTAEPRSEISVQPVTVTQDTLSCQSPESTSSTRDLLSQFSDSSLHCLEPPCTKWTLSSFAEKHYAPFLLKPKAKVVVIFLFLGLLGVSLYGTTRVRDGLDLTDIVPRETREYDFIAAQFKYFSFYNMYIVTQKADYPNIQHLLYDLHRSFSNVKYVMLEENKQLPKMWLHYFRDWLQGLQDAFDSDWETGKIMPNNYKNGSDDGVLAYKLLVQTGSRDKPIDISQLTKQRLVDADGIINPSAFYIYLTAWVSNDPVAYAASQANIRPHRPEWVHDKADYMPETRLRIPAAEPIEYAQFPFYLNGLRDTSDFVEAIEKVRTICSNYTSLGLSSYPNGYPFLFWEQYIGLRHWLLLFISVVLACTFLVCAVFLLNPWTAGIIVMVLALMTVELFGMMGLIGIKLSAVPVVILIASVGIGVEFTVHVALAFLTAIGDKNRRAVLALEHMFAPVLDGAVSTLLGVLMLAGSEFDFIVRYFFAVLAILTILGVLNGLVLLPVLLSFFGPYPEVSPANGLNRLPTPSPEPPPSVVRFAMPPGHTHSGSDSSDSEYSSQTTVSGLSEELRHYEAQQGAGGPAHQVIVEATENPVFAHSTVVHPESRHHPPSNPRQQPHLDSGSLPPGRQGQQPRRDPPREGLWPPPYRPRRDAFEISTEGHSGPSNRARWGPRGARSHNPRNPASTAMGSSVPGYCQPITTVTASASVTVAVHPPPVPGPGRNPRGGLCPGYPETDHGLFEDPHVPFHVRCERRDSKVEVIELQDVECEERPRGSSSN
PTCH2 (Homo sapiens), sequence (Q9Y6C5 whole entry, the tested form may be a part): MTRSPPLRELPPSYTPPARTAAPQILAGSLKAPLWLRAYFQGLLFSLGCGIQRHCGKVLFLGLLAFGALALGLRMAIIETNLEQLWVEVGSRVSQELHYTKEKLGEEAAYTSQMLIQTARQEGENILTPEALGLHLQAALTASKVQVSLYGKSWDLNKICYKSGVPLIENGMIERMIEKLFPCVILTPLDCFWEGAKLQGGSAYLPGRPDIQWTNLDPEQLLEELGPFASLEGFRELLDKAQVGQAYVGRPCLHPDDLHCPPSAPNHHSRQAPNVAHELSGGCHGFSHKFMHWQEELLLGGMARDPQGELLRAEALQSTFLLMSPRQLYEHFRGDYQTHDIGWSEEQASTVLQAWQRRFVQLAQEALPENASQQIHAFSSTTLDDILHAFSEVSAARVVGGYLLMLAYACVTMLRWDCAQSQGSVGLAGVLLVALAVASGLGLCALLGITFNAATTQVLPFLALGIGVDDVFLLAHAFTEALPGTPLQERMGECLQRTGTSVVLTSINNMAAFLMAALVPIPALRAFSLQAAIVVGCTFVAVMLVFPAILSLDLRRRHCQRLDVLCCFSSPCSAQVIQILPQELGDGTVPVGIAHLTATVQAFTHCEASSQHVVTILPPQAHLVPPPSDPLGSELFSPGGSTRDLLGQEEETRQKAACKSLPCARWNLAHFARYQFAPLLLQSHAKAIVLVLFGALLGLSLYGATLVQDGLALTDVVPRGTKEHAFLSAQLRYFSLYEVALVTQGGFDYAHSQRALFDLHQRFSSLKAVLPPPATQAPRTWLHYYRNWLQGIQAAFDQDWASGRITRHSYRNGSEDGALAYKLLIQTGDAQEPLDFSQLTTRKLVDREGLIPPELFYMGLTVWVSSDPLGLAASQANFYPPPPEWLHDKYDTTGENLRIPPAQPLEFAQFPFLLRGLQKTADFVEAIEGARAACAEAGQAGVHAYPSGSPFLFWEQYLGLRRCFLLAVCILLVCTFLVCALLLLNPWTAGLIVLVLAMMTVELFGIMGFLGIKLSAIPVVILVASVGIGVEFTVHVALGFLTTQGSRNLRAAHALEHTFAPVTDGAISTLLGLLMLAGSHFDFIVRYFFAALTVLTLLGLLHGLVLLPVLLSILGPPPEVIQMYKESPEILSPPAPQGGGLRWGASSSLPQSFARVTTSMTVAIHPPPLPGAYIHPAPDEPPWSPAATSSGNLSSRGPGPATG
Ihh, sequence (Q14623 28-202): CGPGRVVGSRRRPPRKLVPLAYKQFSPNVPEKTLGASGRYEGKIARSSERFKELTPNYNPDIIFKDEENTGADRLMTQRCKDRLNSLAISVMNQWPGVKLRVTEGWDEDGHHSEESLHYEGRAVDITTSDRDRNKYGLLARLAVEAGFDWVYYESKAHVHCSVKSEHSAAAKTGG

Substance: Shh (from UniProt Q15465)
- Kd (PTCH2 (Homo sapiens) [1]): 1.8 nM
- Kd (PTCH1 (Homo sapiens) [2]): 1 nM

Substance: Dhh (from UniProt O43323)
- Kd (PTCH2 (Homo sapiens) [3]): 0.6 nM
- Kd (PTCH1 (Homo sapiens) [4]): 2.6 nM

Substance: Ihh (from UniProt Q14623)
- Kd (PTCH1 (Homo sapiens) [5]): 1 nM
- Kd (PTCH2 (Homo sapiens) [6]): 0.4 nM

Substance: recombinant TRP120 tandem repeat domain (rTRP120-TR) (domain or fragment)
- Kd [7]: 4.4 nM
